Biological target: T1, tagless human TIM-3 IgV domain (human, UniProt Q8TDQ0 24-130)
T1 construct: N-terminal methionine added before Val24; T-cell immunoglobulin and mucin domain containing protein-3 (TIM-3, HAVCR2), human, IgV domain, Val24 thru Lys130; the same tagless protein was used for crystallization and ELISA; also called tagless hTIM-3 IgV domain; hTIM-3 IgV domain
Assay: ELISA; tagless hTIM-3 IgV (50 μl of 250 nM) coated on the plate; GST tagged hCEACAM1 IgV (0–15 μM) or GST control in Dulbeccos PBS; detected with goat polyclonal anti-GST-HRP
Conditions: both partners purified

T1 sequence (Q8TDQ0 other isoform, or with tags, fused parts or gaps): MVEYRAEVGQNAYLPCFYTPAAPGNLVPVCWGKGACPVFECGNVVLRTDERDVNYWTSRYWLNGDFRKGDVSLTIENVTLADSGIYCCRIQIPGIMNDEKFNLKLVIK

EC50: 3.13 µM
B1: glutathione-S-transferase (GST) tagged hCEACAM1 IgV-domain protein (domain or fragment, human, UniProt P13688 35-142, looked up)
chain: QLTTESMPFNVAEGKEVLLLVHNLPQQLFGYSWYKGERVDGNRQIVGYAIGTQQATPGPANSGRETIYPNASLLIQNVTQNDTGFYTLQVIKSDLVNEEATGQFHVYP
notes: carcinoembryonic antigen cell adhesion molecule 1 (CEACAM1), human, IgV (N-terminal) domain; Detected by an anti-GST-HRP antibody; also called GST-hCEACAM1 IgV fusion protein

— paper PMC6269442, “High resolution X-ray and NMR structural study of human T-cell immunoglobulin and mucin domain containing protein-3” (Scientific Reports, 2018)
